Measured values reported in patent US20250320305A1 (Hoffmann-La Roche, published 2025).

Columns and labels:
[1] = molecular target: T1, human CD40 expressed on cells (human, UniProt P25942 21-277); assay: flow cytometry, Raji cells;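 also: cell binding of antibodies to Raji cells detected by flow cytometry using an Alexa488-labelled anti-human IgG secondary antibody, primary incubation 1 h at 4 °C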
T1 construct: also called huCD40; Raji cells
Description: CD40 positive cells (Raji cells) were detatched from the culture bottle using Trypsin and were counted using a Casy cell counter. After pelleting at 4° C., the cells were resuspended in FACS Buffer (2.5% FCS in PBS), adjusted to 2.0E+06 cells/mL, and dispensed to 96-well PP V-bottom-plates (25 μL/well=5.0E+04Zellen/well).
The CD40 specific antibodies were adjusted to 20 μg/mL in FACS buffer, resulting in a final concentration of 10 μg/mL. 20 μl were added to 25 μl cell suspension and incubated for 1 h at 4° C. The cells were then washed twice in FACS buffer. After washing, the cells were resuspended in 50 μL FACS-buffer containing secondary antibody (<huIgG>-Alexa488, c=10 μg/mL) and incubated 1 h bei 4° C. The cells were then washed twice in FACS buffer and resuspended in 70 μl/well FACS buffer for measurement using a FACS Canto (BD, Pharmingen).

[2] = molecular target: T2, human CD40 extracellular domain with C-terminal His-AviTag (human, UniProt P25942 21-193); assay: SPR, antibody captured, CD40 ECD analyte;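 also: biacore SPR at 25 °C in PBS-T pH 7.4, CD40 ECD analyte from 300 nM in 1:3 series, 300 s association, up to 1200 s dissociation, double-referenced, Langmuir 1:1 fit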
T2 construct: not shown: C-terminal His-AviTag

Binder	EC50 [1]	Kd [2]	koff [2]	kon [2]
P1AE0993, humanized anti-CD40 antibody VH1a/VL1c, huIgG1_LALA_PG (antibody, V domains shown, huIgG1 with effector silent Fc (P329G, L234A, L235A)) VH: QVQLVQSGAEVKKPGASVKVSCKASGYSFTGYYIHWVRQAPGQSLEWMGRVIPNAGGTSYNQKFKGRVTLTVDKSISTAYMELSRLRSDDTAVYYCAREGIYWWGQGTTVTVSS VL: DVVVTQTPLSLSVTPGQPASISCRSSQSLVHSNGNTFLHWYLQKPGQSPQLLIYTVSNRFSGVPDRFSGSGSGTDFTLKISRVEAEDVGVYFCSQTTHVPWTFGGGTKVEIK	0.13 µg/mL	3.4 nM	0.00898 s⁻¹	2.68e+06 M⁻¹ s⁻¹
P1AE0818, humanized anti-CD40 antibody VH1c/VL1c, huIgG1_LALA_PG (antibody, V domains shown, huIgG1 with effector silent Fc (P329G, L234A, L235A)) VH: QVQLVQSGAEVKKPGASVKVSCKASGYSFTGYYIHWVRQAPGQSLEWMGRVIPNAGGTSYNQKFKGRVTLTVDKSISTAYMELSRLRSDDTAVYYCAREGIYWWGHGTTVTVSS VL: DVVVTQTPLSLSVTPGQPASISCRSSQSLVHSNGNTFLHWYLQKPGQSPQLLIYTVSNRFSGVPDRFSGSGSGTDFTLKISRVEAEDVGVYFCSQTTHVPWTFGGGTKVEIK	0.14 µg/mL	3.2 nM	0.00847 s⁻¹	2.63e+06 M⁻¹ s⁻¹
P1AE0819, humanized anti-CD40 antibody VH1d/VL1d, huIgG1_LALA_PG (antibody, V domains shown, huIgG1 with effector silent Fc (P329G, L234A, L235A)) VH: QVQLVQSGAEVKKPGASVKVSCKASGYSFTGYYIHWVRQAPGQSLEWMGRVIPNAGGTSYNQKFKGRVTLSVDKSISTAYMELSRLRSDDTAVYYCAREGIYWWGQGTTVTVSS VL: DVVVTQTPLSLSVTPGQPASISCRSSQSLVHSNGNTFLHWYLQKPGQSPQLLIYTVSNRFSGVPDRFSGSGSGTDFTLKISRVEAEDVGVYFCSQTTHVPWTFGGGTKLEIK	0.11 µg/mL	3.4 nM	0.00877 s⁻¹	2.59e+06 M⁻¹ s⁻¹
P1AE0996, humanized anti-CD40 antibody VH1a/VL1d, huIgG1_LALA_PG (antibody, V domains shown, huIgG1 with effector silent Fc (P329G, L234A, L235A)) VH: QVQLVQSGAEVKKPGASVKVSCKASGYSFTGYYIHWVRQAPGQSLEWMGRVIPNAGGTSYNQKFKGRVTLTVDKSISTAYMELSRLRSDDTAVYYCAREGIYWWGQGTTVTVSS VL: DVVVTQTPLSLSVTPGQPASISCRSSQSLVHSNGNTFLHWYLQKPGQSPQLLIYTVSNRFSGVPDRFSGSGSGTDFTLKISRVEAEDVGVYFCSQTTHVPWTFGGGTKLEIK	0.12 µg/mL	3.5 nM	0.00908 s⁻¹	2.59e+06 M⁻¹ s⁻¹
P1AE0997, humanized anti-CD40 antibody VH1c/VL1a, huIgG1_LALA_PG (antibody, V domains shown, huIgG1 with effector silent Fc (P329G, L234A, L235A)) VH: QVQLVQSGAEVKKPGASVKVSCKASGYSFTGYYIHWVRQAPGQSLEWMGRVIPNAGGTSYNQKFKGRVTLTVDKSISTAYMELSRLRSDDTAVYYCAREGIYWWGHGTTVTVSS VL: DIVMTQTPLSLSVTPGQPASISCRSSQSLVHSNGNTFLHWYLQKPGQSPQLLIYTVSNRFSGVPDRFSGSGSGTDFTLKISRVEAEDVGVYFCSQTTHVPWTFGGGTKVEIK	0.12 µg/mL	2.3 nM	0.00603 s⁻¹	2.59e+06 M⁻¹ s⁻¹
P1AE0998, humanized anti-CD40 antibody VH1c/VL1d, huIgG1_LALA_PG (antibody, V domains shown, huIgG1 with effector silent Fc (P329G, L234A, L235A)) VH: QVQLVQSGAEVKKPGASVKVSCKASGYSFTGYYIHWVRQAPGQSLEWMGRVIPNAGGTSYNQKFKGRVTLTVDKSISTAYMELSRLRSDDTAVYYCAREGIYWWGHGTTVTVSS VL: DVVVTQTPLSLSVTPGQPASISCRSSQSLVHSNGNTFLHWYLQKPGQSPQLLIYTVSNRFSGVPDRFSGSGSGTDFTLKISRVEAEDVGVYFCSQTTHVPWTFGGGTKLEIK	0.12 µg/mL	3.3 nM	0.00896 s⁻¹	2.7e+06 M⁻¹ s⁻¹
P1AE0999, humanized anti-CD40 antibody VH1d/VL1a, huIgG1_LALA_PG (antibody, V domains shown, huIgG1 with effector silent Fc (P329G, L234A, L235A)) VH: QVQLVQSGAEVKKPGASVKVSCKASGYSFTGYYIHWVRQAPGQSLEWMGRVIPNAGGTSYNQKFKGRVTLSVDKSISTAYMELSRLRSDDTAVYYCAREGIYWWGQGTTVTVSS VL: DIVMTQTPLSLSVTPGQPASISCRSSQSLVHSNGNTFLHWYLQKPGQSPQLLIYTVSNRFSGVPDRFSGSGSGTDFTLKISRVEAEDVGVYFCSQTTHVPWTFGGGTKVEIK	0.15 µg/mL	2.4 nM	0.00592 s⁻¹	2.45e+06 M⁻¹ s⁻¹
P1AE1000, humanized anti-CD40 antibody VH1d/VL1c, huIgG1_LALA_PG (antibody, V domains shown, huIgG1 with effector silent Fc (P329G, L234A, L235A)) VH: QVQLVQSGAEVKKPGASVKVSCKASGYSFTGYYIHWVRQAPGQSLEWMGRVIPNAGGTSYNQKFKGRVTLSVDKSISTAYMELSRLRSDDTAVYYCAREGIYWWGQGTTVTVSS VL: DVVVTQTPLSLSVTPGQPASISCRSSQSLVHSNGNTFLHWYLQKPGQSPQLLIYTVSNRFSGVPDRFSGSGSGTDFTLKISRVEAEDVGVYFCSQTTHVPWTFGGGTKVEIK	0.14 µg/mL	3.2 nM	0.00862 s⁻¹	2.68e+06 M⁻¹ s⁻¹
P1AE1001, humanized anti-CD40 antibody VH1a/VL1b, huIgG1_LALA_PG (antibody, V domains shown, huIgG1 with effector silent Fc (P329G, L234A, L235A)) VH: QVQLVQSGAEVKKPGASVKVSCKASGYSFTGYYIHWVRQAPGQSLEWMGRVIPNAGGTSYNQKFKGRVTLTVDKSISTAYMELSRLRSDDTAVYYCAREGIYWWGQGTTVTVSS VL: DIVVTQTPLSLSVTPGQPASISCRSSQSLVHSNGNTFLHWYLQKPGQSPQLLIYTVSNRFSGVPDRFSGSGSGTDFTLKISRVEAEDVGVYFCSQTTHVPWTFGGGTKVEIK	0.08 µg/mL	2.7 nM	0.00681 s⁻¹	2.56e+06 M⁻¹ s⁻¹
P1AE1002, humanized anti-CD40 antibody VH1b/VL1a, huIgG1_LALA_PG (antibody, V domains shown, huIgG1 with effector silent Fc (P329G, L234A, L235A)) VH: QVQLVQSGAEVKKPGASVKVSCKASGYSFTGYYIHWVRQAPGKSLEWMGRVIPNAGGTSYNQKFKGRVTLTVDKSISTAYMELSRLRSDDTAVYYCAREGIYWWGQGTTVTVSS VL: DIVMTQTPLSLSVTPGQPASISCRSSQSLVHSNGNTFLHWYLQKPGQSPQLLIYTVSNRFSGVPDRFSGSGSGTDFTLKISRVEAEDVGVYFCSQTTHVPWTFGGGTKVEIK	0.13 µg/mL	2.2 nM	0.00557 s⁻¹	2.54e+06 M⁻¹ s⁻¹
